Data: patent publication US20130209454A1

What was measured:
Experiment in all cases: cell-based or functional assay
[1] = biological target: HIV-1 strain 231965.c01 envelope (gp120) (HIV-1)
[2] = biological target: HIV-1 strain P1981_C5_3 envelope (gp120) (HIV-1)
[3] = biological target: HIV-1 strain ZM214M.PL15 envelope (gp120) (HIV-1)
[4] = biological target: HIV-1 strain Ce1176_A3 envelope (gp120) (HIV-1)
[5] = biological target: HIV-1 Env of strain CNE17 (HIV-1)
[6] = biological target: HIV-1 strain TRJO4551.58 envelope (gp120) (HIV-1)
[7] = biological target: HIV-1 Env of strain 6811.v7.c18 (HIV-1)
[8] = biological target: HIV-1 strain 3016.v5.c45 envelope (gp120) (HIV-1)
[9] = biological target: HIV-1 strain CNE53 envelope (gp120) (HIV-1)
[10] = biological target: HIV-1 Env of strain 620345.c01 (HIV-1)
[11] = biological target: HIV-1 Env of strain REJO4541.67 (HIV-1)
[12] = biological target: HIV-1 strain 0815.v3.c3 envelope (gp120) (HIV-1)
[13] = biological target: HIV-1 Env of strain C1080.c03 (HIV-1)
[14] = biological target: HIV-1 strain Ce703010054_2A2 envelope (gp120) (HIV-1)
[15] = biological target: HIV-1 strain Ce0682_E4 envelope (gp120) (HIV-1)
[16] = biological target: HIV-1 strain CNE20 envelope (gp120) (HIV-1)
[17] = biological target: HIV-1 Env of strain 3016.v5.c45 (HIV-1)
[18] = biological target: HIV-1 strain Ce0393_C3 envelope (gp120) (HIV-1)
[19] = biological target: HIV-1 strain X2131_C1_B5 envelope (gp120) (HIV-1)
[20] = biological target: HIV-1 Env of strain T255-34 (HIV-1)
[21] = biological target: HIV-1 Env of strain CAP45.2.00.G3 (HIV-1)
[22] = biological target: HIV-1 Env of strain CAP210.2.00.E8 (HIV-1)
[23] = biological target: HIV-1 Env of strain 1056_10_TA11_1826 (HIV-1)
[24] = biological target: HIV-1 Env of strain P0402_c2_11 (HIV-1)
[25] = biological target: HIV-1 strain Du422.1 envelope (gp120) (HIV-1)
[26] = biological target: HIV-1 strain 89-F1_2_25 envelope (gp120) (HIV-1)
[27] = biological target: HIV-1 Env of strain 928-28 (HIV-1)
[28] = biological target: HIV-1 Env of strain CNE58 (HIV-1)
[29] = biological target: HIV-1 strain 0330.v4.c3 envelope (gp120) (HIV-1)
[30] = biological target: HIV-1 strain ZM249M.PL1 envelope (gp120) (HIV-1)
[31] = biological target: HIV-1 strain CAP45.2.00.G3 envelope (gp120) (HIV-1)
[32] = biological target: HIV-1 strain TRO.11 envelope (gp120) (HIV-1)
[33] = biological target: HIV-1 Env of strain 211-9 (HIV-1)
[34] = biological target: HIV-1 Env of strain Q842.d12 (HIV-1)
[35] = biological target: HIV-1 Env of strain 0815.v3.c3 (HIV-1)
[36] = biological target: HIV-1 Env of strain 1054_07_TC4_1499 (HIV-1)
[37] = biological target: HIV-1 strain Q23.17 envelope (gp120) (HIV-1)
[38] = biological target: HIV-1 Env of strain ZM197M.PB7 (HIV-1)
[39] = biological target: HIV-1 strain QH0692.42 envelope (gp120) (HIV-1)
[40] = biological target: HIV-1 Env of strain Ce2060_G9 (HIV-1)
[41] = biological target: HIV-1 strain Q259.d2.17 envelope (gp120) (HIV-1)
[42] = biological target: HIV-1 Env of strain X1193_c1 (HIV-1)
[43] = biological target: HIV-1 strain Q842.d12 envelope (gp120) (HIV-1)
[44] = biological target: HIV-1 strain 6540.v4.c1 envelope (gp120) (HIV-1)
[45] = biological target: HIV-1 Env of strain T251-18 (HIV-1)
[46] = biological target: HIV-1 strain 3817.v2.c59 envelope (gp120) (HIV-1)
[47] = biological target: HIV-1 Env of strain C2101.c01 (HIV-1)
[48] = biological target: HIV-1 strain T278-50 envelope (gp120) (HIV-1)
[49] = biological target: HIV-1 strain WEAU_d15_410_787 envelope (gp120) (HIV-1)
[50] = biological target: HIV-1 strain CAP210.2.00.E8 envelope (gp120) (HIV-1)

B1: NIH45-46^G54W IgG (antibody, name in Kabat numbering, V domains shown)
VH: QVRLSQSGGQMKKPGESMRLSCRASGYEFLNCPINWIRLAPGRRPEWMGWLKPRWGAVNYARKFQGRVTMTRDVYSDTAFLELRSLTSDDTAVYFCTRGKYCTARDYYNWDFEHWGRGAPVTVSS
VL: EIVLTQSPATLSLSPGETAIISCRTSQSGSLAWYQQRPGQAPRLVIYSGSTRAAGIPDRFSGSRWGADYNLSISNLESGDFGVYYCQQYEFFGQGTKVQVDI
- neutralization IC80 [1]: 0.035 µg/mL
- neutralization IC80 [2]: 0.07 µg/mL
- neutralization IC80 [3]: 0.15 µg/mL
- neutralization IC80 [4]: 0.45 µg/mL
- neutralization IC50 [5]: 0.036 µg/mL
- neutralization IC80 [6]: 0.05 µg/mL
- neutralization IC50 [7]: < 0.001 µg/mL
- neutralization IC80 [8]: 15.4 µg/mL
- neutralization IC80 [9]: 0.005 µg/mL
- neutralization IC50 [10]: > 50 µg/mL
- neutralization IC50 [11]: 0.002 µg/mL
- neutralization IC80 [12]: 0.003 µg/mL
- neutralization IC50 [13]: 0.2 µg/mL
- neutralization IC80 [14]: 0.077 µg/mL
- neutralization IC80 [15]: 0.039 µg/mL
- neutralization IC80 [16]: 0.48 µg/mL
- neutralization IC50 [17]: 1.47 µg/mL
- neutralization IC80 [18]: 0.089 µg/mL
- neutralization IC80 [19]: 0.24 µg/mL
- improvement of neutralization potency over NIH45-46 [20]: > 700 fold
- neutralization IC50 [20]: < 0.001 µg/mL
- neutralization IC50 [21]: 32.2 µg/mL
- neutralization IC50 [22]: > 50 µg/mL
- neutralization IC50 [23]: 0.024 µg/mL
- neutralization IC50 [24]: 0.003 µg/mL
- neutralization IC80 [25]: > 50 µg/mL
- neutralization IC80 [26]: > 50 µg/mL
- neutralization IC50 [27]: 0.06 µg/mL
- neutralization IC50 [28]: 0.02 µg/mL
- neutralization IC80 [29]: 0.11 µg/mL
- neutralization IC80 [30]: 0.007 µg/mL
- neutralization IC80 [31]: > 50 µg/mL
- neutralization IC80 [32]: 0.13 µg/mL
- neutralization IC50 [33]: 16.4 µg/mL
- neutralization IC50 [34]: 0.005 µg/mL
- neutralization IC50 [35]: < 0.001 µg/mL
- neutralization IC50 [36]: 0.04 µg/mL
- neutralization IC80 [37]: 0.03 µg/mL
- neutralization IC50 [38]: 0.04 µg/mL
- neutralization IC80 [39]: 1.12 µg/mL
- neutralization IC50 [40]: 0.005 µg/mL
- neutralization IC80 [41]: 0.014 µg/mL
- neutralization IC50 [42]: < 0.001 µg/mL
- neutralization IC80 [43]: 0.025 µg/mL
- neutralization IC80 [44]: > 50 µg/mL
- neutralization IC50 [45]: 0.26 µg/mL
- neutralization IC80 [46]: > 50 µg/mL
- neutralization IC50 [47]: 0.04 µg/mL
- neutralization IC80 [48]: > 50 µg/mL
- neutralization IC80 [49]: 0.003 µg/mL
- neutralization IC80 [50]: > 50 µg/mL
